B1: 6NMW (parent)
chain: QGDIVVALYPYDGIHPDDLSFKKGEKMKVLEEHGEWWKAKSLLTKKEGFIPSNYVAKLN

Variants of: B1
Experiment: folding stability dG (cDNA display proteolysis); higher = more stable
Details: PBS, room temperature

Variant | folding stability dG
W37K | 3.8 kcal/mol
W37V | 3.04 kcal/mol
W37Q | 1.99 kcal/mol
W37N | 1.19 kcal/mol
W37P | 1.7 kcal/mol
W37H | 2.59 kcal/mol
W37R | 2.28 kcal/mol
W36T | 2.87 kcal/mol
W36M | 3.29 kcal/mol
W36R | 4.45 kcal/mol
W36D | 0.269 kcal/mol
W36Q | 2.51 kcal/mol
F21Q | -0.217 kcal/mol
F21Y | -0.495 kcal/mol
D17W | 4.86 kcal/mol
D17S | 3.63 kcal/mol
D17P | 2.35 kcal/mol
V29T | 0.988 kcal/mol
V29A | 0.496 kcal/mol
V29L | 4.64 kcal/mol
V29S | -0.702 kcal/mol
V29P | 0.224 kcal/mol
V29K | 1.25 kcal/mol
Y54D | -0.435 kcal/mol
Y54I | 2.17 kcal/mol

Variant | folding stability dG
Y54S | 1.81 kcal/mol
Y11A | -0.375 kcal/mol
Y11S | 0.369 kcal/mol
Y11K | 0.796 kcal/mol
Y11L | 0.851 kcal/mol
Y11V | 0.147 kcal/mol
Y11N | 0.567 kcal/mol
M27W | -0.174 kcal/mol
E31D | 3.05 kcal/mol
E31V | 2.64 kcal/mol
E31Q | 3.11 kcal/mol
E31T | 2.69 kcal/mol
I4E | 1.53 kcal/mol
I4A | 0.908 kcal/mol
I4W | 2.71 kcal/mol
I4S | 0.94 kcal/mol
I4M | 2.52 kcal/mol
T44Y | 0.599 kcal/mol
T44A | 0.515 kcal/mol
T44M | 0.443 kcal/mol
T44S | 3.08 kcal/mol
T44N | 2.06 kcal/mol
T44D | 1.14 kcal/mol
T44W | 0.672 kcal/mol
K45R | 3.65 kcal/mol

Variant | folding stability dG
K45W | 4.01 kcal/mol
K45T | 3.1 kcal/mol
K45N | 4.22 kcal/mol
K45M | 4.29 kcal/mol
K45L | 4.49 kcal/mol
K45H | 4.6 kcal/mol
K45I | 1.8 kcal/mol
L30C | 2.42 kcal/mol
L30F | 2.37 kcal/mol
L30K | 0.883 kcal/mol
L30D | 0.53 kcal/mol
L30G | 0.263 kcal/mol
N53E | 3.19 kcal/mol
N53P | 1.68 kcal/mol
N53D | 3.14 kcal/mol
E32D | 4.38 kcal/mol
E32W | 3.48 kcal/mol
E32Y | 4.42 kcal/mol
E32T | 3.95 kcal/mol
E32P | 2.54 kcal/mol
S20L | 1.15 kcal/mol
S20W | 1.65 kcal/mol
S20I | 2.09 kcal/mol
S20R | 2.23 kcal/mol
S20G | 2.01 kcal/mol

Variant | folding stability dG
S20Y | 1.22 kcal/mol
E35Y | 4.96 kcal/mol
E35R | 3.59 kcal/mol
E35V | 3.94 kcal/mol
E35S | 3.82 kcal/mol
E35G | 3.14 kcal/mol
E35W | 4.11 kcal/mol
E35N | 4.01 kcal/mol
E25I | -0.618 kcal/mol
E25N | 0.344 kcal/mol
E25A | 1.21 kcal/mol
E25S | 0.621 kcal/mol
E25C | 1.3 kcal/mol
I50D | -0.59 kcal/mol
I50F | 2.01 kcal/mol
I50W | -0.594 kcal/mol
I50A | 0.132 kcal/mol
L58N | 1.86 kcal/mol
L58Q | 2.38 kcal/mol
L58E | 2.77 kcal/mol
L58M | 3.45 kcal/mol
A56S | 3.31 kcal/mol
A56C | 4.6 kcal/mol
A56L | 3.61 kcal/mol
A56V | 4.56 kcal/mol

Variant | folding stability dG
N59P | 3.88 kcal/mol
N59I | 4 kcal/mol
N59C | 4.64 kcal/mol
N59L | 3.64 kcal/mol
N59A | 3.8 kcal/mol
N59W | 3.08 kcal/mol
Q1H | 3.79 kcal/mol
Q1P | 3.96 kcal/mol
Q1C | 4.65 kcal/mol
Q1R | 3.79 kcal/mol
Q1A | 3.87 kcal/mol
L8Q | 1.62 kcal/mol
L8M | 2.78 kcal/mol
L8I | 3.04 kcal/mol
L8A | 0.801 kcal/mol
K23W | 2.06 kcal/mol
K23R | 3.33 kcal/mol
K23E | 2.88 kcal/mol
K23F | 2.42 kcal/mol
K38Q | 2.39 kcal/mol
K38P | 0.337 kcal/mol
K38C | 3.63 kcal/mol
K38F | 4.92 kcal/mol
K38H | 2.92 kcal/mol
K38E | 1.49 kcal/mol

Variant | folding stability dG
K38T | 2.18 kcal/mol
K38G | 0.033 kcal/mol
K38N | 1.45 kcal/mol
H33Y | 3.6 kcal/mol
H33F | 3.74 kcal/mol
H33R | 3.41 kcal/mol
H33D | 2.75 kcal/mol
H33C | 4.43 kcal/mol
D12M | 3.84 kcal/mol
D12S | 3.78 kcal/mol
D12I | 4.38 kcal/mol
E47M | 3.2 kcal/mol
E47F | 2.36 kcal/mol
E47Q | 3.21 kcal/mol
I14H | 3.13 kcal/mol
I14M | 3.36 kcal/mol
I14E | 2.98 kcal/mol
I14L | 3.51 kcal/mol
I14K | 3.81 kcal/mol
I14D | 2.68 kcal/mol

From the MegaScale stability set (Tsuboyama et al. 2023)
